The target in the test is ovalbumin peptide SIINFEKL presented on mouse MHC Class I H-2Kb on OP9-DL1 cells (mouse) (UniProt P01901). As to the kind of experiment: cell-based or functional assay.
Sequence of UniProt P01901 (P01901 22-369): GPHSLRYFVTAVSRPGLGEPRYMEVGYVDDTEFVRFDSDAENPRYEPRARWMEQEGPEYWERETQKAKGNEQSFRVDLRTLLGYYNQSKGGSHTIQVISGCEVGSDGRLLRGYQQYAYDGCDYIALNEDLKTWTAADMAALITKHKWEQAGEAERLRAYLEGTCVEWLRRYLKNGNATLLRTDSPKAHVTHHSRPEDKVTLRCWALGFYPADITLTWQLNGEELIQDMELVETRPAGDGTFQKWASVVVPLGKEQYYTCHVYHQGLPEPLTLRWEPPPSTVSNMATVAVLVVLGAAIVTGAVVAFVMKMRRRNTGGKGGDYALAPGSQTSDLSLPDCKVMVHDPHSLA

Substance “OT-1 transgenic TCR (specific for ovalbumin peptide SIINFEKL presented on H-2Kb)” registered a development or survival of double positive (DP) T cells from OT-1 progenitors in OP9-DL1 culture, flow cytometry above 0.01 µM.

Values taken from patent publication US10875904B2.
